± gives the standard deviation.

Drawing on the supplement of paper PMC10567573, this text covers protein stability index for 72 sequences.

This data set can be described thus: protein stability index of a GFP-peptide fusion (GPS, HEK-293T) (PSI 1-6); higher = more stable.
[1] abbreviates: treatment: DMSO, c terminus: a fixed tail appended.
Where [2] appears, read: treatment: MLN4924 1 uM, 8 h, c terminus: a fixed tail appended.
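Also: 24-mer peptide tiles fused after GFP, lentivirally expressed, FACS-sorted into six equal bins by GFP/DsRed ratio, decoded by Illumina sequencing, PSI is the read-weighted mean bin number.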

As to LAAPSLHVKEQLPCAGLNCQALDA [TLE6], the protein stability index reads like this: under setting [1], 3.92 ± 0.25; under setting [2], 3.97 ± 0.28.

Take LAGGLCVGIYATNSAEACQYVITH [ACSBG2]: the protein stability index came out at 2.84 ± 1.1 under setting [1] and 2 ± 0.36 under setting [2].

Take LAPVRQQELASLLRTYLARLPWAG [PBXIP1]: the protein stability index reads like this: under setting [1], 2.22 ± 0.28; under setting [2], 2.12 ± 0.27.

Take LAQAAGFAPQTGARPSETFARFCK [DNAAF3]: the protein stability index came to 3.52 ± 0.23 under setting [1] and 3.57 ± 0.4 under setting [2].

With LASTSKPVVKLLHNRSNNKYSYTS [KCTD13], the protein stability index is, setting by setting: under setting [1], 3.08 ± 0.2; under setting [2], 3.27 ± 0.28.

For the sequence LAVCLAPSLFHLNTLKRENSSPRV [DLC1], the protein stability index by setting is: under setting [1], 2.24 ± 0.24; under setting [2], 2.11 ± 0.2.

With LCPGDLIQAINGESTELMTHLEAQ [PDLIM4], the protein stability index is, setting by setting: under setting [1], 4.51 ± 0.26; under setting [2], 4.54 ± 0.094.

Take LCQCHEGFALNPDKKTCTKIDYCA [MATN2]: the protein stability index runs as follows: under setting [1], 2.95 ± 0.29; under setting [2], 3.35 ± 0.6.

For LDMDEGTLSFIVDGQYLGVAFRGL [SPSB4], the protein stability index under setting [1] was found to be 2.6 ± 0.46 and the protein stability index under setting [2] was determined as 2.26 ± 0.59.

LDQAPKARKYFERLPGGGWTLRRT [DYRK1B]: the protein stability index under setting [1] amounted to 3.48 ± 0.27 and the protein stability index under setting [2] was 3.33 ± 0.33.

In the case of LDQLLRHVMNPLETLSITNCRLSE [PRAME], the protein stability index reads like this: under setting [1], 2.59 ± 0.62; under setting [2], 2.39 ± 0.49.

For the sequence LDRHQLPLDDALLSFAHANCTLII [DPCD], the protein stability index reads like this: under setting [1], 2.69 ± 0.56; under setting [2], 2.63 ± 0.48.

On to LEALIDTIQKQLKDHSCKDNIREA [EFHC1], for which the protein stability index came out at 3.55 ± 0.21 under setting [1] and 3.65 ± 0.25 under setting [2].

For LEAPEDIGSTSESKDWEEVVVESM [MIA2], the protein stability index worked out at 5.4 ± 0.23 under setting [1] and 5.58 ± 0.013 under setting [2].

Consider LEELIDMAVLEEIQQELIKQEQSI [RPAIN], for which the protein stability index runs as follows: under setting [1], 3.34 ± 0.31; under setting [2], 3.44 ± 0.3.

Take LEENELTSLAEDLLGLTDPNGGLA [TRADD]: the protein stability index runs as follows: under setting [1], 4.49 ± 0.27; under setting [2], 4.43 ± 0.29.

With LEKEIEVLERGDSAPATAKENAAA [PALM], the protein stability index came out at 5.34 ± 0.2 under setting [1] and 5.62 ± 0.2 under setting [2].

In the case of LEKGLEPEPQVPGPAHGPAQEEPW [ZNF232], the protein stability index under setting [1] came out at 5.35 ± 0.46 and the protein stability index under setting [2] was found to be 5.35 ± 0.25.

As to LENLCENASTLRTINIKCHVHDPH [FBXO39], the protein stability index under setting [1] turned out to be 3.59 ± 0.27 and the protein stability index under setting [2] worked out at 3.59 ± 0.036.

Consider LEQFVTRFLLKETLNQLQSLQNSL [NECAB1], for which the protein stability index reads like this: under setting [1], 2.87 ± 1.3; under setting [2], 2.76 ± 0.27.

For LEVNRLMGKLLQQPNTYADFEFLA [PKD2L1], the protein stability index runs as follows: under setting [1], 2.17 ± 0.37; under setting [2], 2.48 ± 0.14.

On to LFFPEGTCSNKKALLKFKPGAFIA [LPCAT4], for which the protein stability index reads like this: under setting [1], 1.86 ± 0.38; under setting [2], 2.41 ± 0.25.

Under setting [2], LFGHPGLDMELGPSQGQETNEVCE [ADAMTSL2] registered a protein stability index of 5.29 ± 0.35.

As for LFQRKLSWIKMTKLEYEEIALDLT [FAN1], the protein stability index is, setting by setting: under setting [1], 3.02 ± 0.39; under setting [2], 2.45 ± 0.24.

Turning to LFSDDYGGKNCKKPAEYGYVSLGR [CEBPB], the protein stability index runs as follows: under setting [1], 3.02 ± 0.31; under setting [2], 3.2 ± 0.33.

LGLRSLIPAVLTVSMLGYPFILPD [MYORG]: the protein stability index stood at 3.1 ± 0.55 under setting [1] and 3.07 ± 0.36 under setting [2].

Regarding LGQNDTGFSCDGTANTFRVMFKEP [BTBD1], the protein stability index by setting is: under setting [1], 3.36 ± 0.2; under setting [2], 3.29 ± 0.31.

LGVIQRDLAKTGCVDLTITNLLEG [AUP1]: the protein stability index is, setting by setting: under setting [1], 2.52 ± 0.18; under setting [2], 2.61 ± 0.46.

Regarding LGYFIRSWRTLAILVNLQGTVVFL [SLC22A15], the protein stability index is 2.71 ± 0.55 under setting [1] and 2.62 ± 0.75 under setting [2].

Turning to LGYLLDKETLRLHPDIFLPSEICD [ZER1], the protein stability index is, setting by setting: under setting [1], 2.4 ± 0.21; under setting [2], 2.46 ± 0.17.

As for LHIFQLNEDGPSSENLEEETENII [TRIP13], the protein stability index under setting [1] amounted to 3.96 ± 0.58 and the protein stability index under setting [2] was determined as 4.21 ± 0.28.

Consider LHPFFAGLTPEERSFHTSRNPSR [CLK3], for which the protein stability index turned out to be 2.72 ± 0.38 (treatment: DMSO, c terminus: native) and 2.73 ± 0.52 (treatment: MLN4924 1 uM, 8 h, c terminus: native).

With LHPRGKNNFSPLHLAVDKNTTCVG [FEM1C], the protein stability index was 3.39 ± 0.13 under setting [1] and 3.43 ± 0.12 under setting [2].

On to LHSHRHLYPEGIGARQQQVTTYLH [POMT2], for which the protein stability index reads like this: under setting [1], 2.76 ± 0.21; under setting [2], 2.82 ± 0.2.

Consider LIPLANTGIVNHTHSRMGSIMSTG [CARM1], for which the protein stability index by setting is: under setting [1], 2.59 ± 0.12; under setting [2], 2.47 ± 0.14.

On to LKIELETYKLKCKALQEENRDLRK [CCDC6], for which the protein stability index runs as follows: under setting [1], 4.25 ± 0.29; under setting [2], 4.63 ± 0.23.

For LKLTVVEDVTVGRRQAVAWLVAMH [ZFYVE21], the protein stability index runs as follows: under setting [1], 3.15 ± 0.56; under setting [2], 2.91 ± 0.57.

For the sequence LKNEVERLKKQLRAAQLQHSEKMA [CCDC6], the protein stability index came out at 2.83 ± 0.32 under setting [1] and 3.14 ± 0.25 under setting [2].

Regarding LLARLRELEQQIWKERDEYITKVS [TRIM15], the protein stability index runs as follows: under setting [1], 1.98 ± 0.36; under setting [2], 1.96 ± 0.56.

LLCNAITGITLLRVKFKSQQHRQG [PTGFR]: the protein stability index was 2.38 ± 0.46 under setting [1] and 2.21 ± 0.77 under setting [2].

Consider LLECYIQYHHSKIRNRGYNLIYRS [TMEM192], for which the protein stability index by setting is: under setting [1], 2.71 ± 0.5; under setting [2], 2.73 ± 0.6.

As for LLGLRTFVAFAAKLWSFFIYLLRR [CTDNEP1], the protein stability index is, setting by setting: under setting [1], 4.28 ± 0.38; under setting [2], 4.16 ± 0.3.

For LLGSSTACIVVLDRTSHRLHTANL [PPTC7], the protein stability index came to 2.66 ± 0.39 under setting [1] and 2.46 ± 0.32 under setting [2].

Consider LLKDKVRERIQILKTSEVTQHLPR [PTPN9], for which the protein stability index reads like this: under setting [1], 2.7 ± 0.32; under setting [2], 2.99 ± 0.075.

Take LLLLLLASLLPSARLASPLPREEE [ADAMTS4]: the protein stability index under setting [1] amounted to 2.56 ± 0.07 and the protein stability index under setting [2] worked out at 3.08 ± 0.55.

LLLPGLNQHGIILKYIGMAKREIN [ARL6IP1] displayed a protein stability index under setting [1] of 2.42 ± 0.68 and a protein stability index under setting [2] of 2.38 ± 0.97.

LLMVRASRRSGKTSAVLKAGRQSV [C6orf223] had a protein stability index under setting [1] of 2.63 ± 0.17 and a protein stability index under setting [2] of 2.85 ± 0.19.

As to LLNTDLHGHNIGKKMSCQQFIANL [PSD2], the protein stability index worked out at 2.24 ± 0.29 under setting [1] and 2.46 ± 0.13 under setting [2].

LLQQNKSIQSLTLEWNSLGTWDDA [LRRC45]: the protein stability index under setting [1] was 2.65 ± 0.094 and the protein stability index under setting [2] amounted to 2.64 ± 0.42.

With LLTITKAHSNAISNCCFTFSGHFL [WDR88], the protein stability index amounted to 3.12 ± 1.1 under setting [1] and 2.59 ± 0.48 under setting [2].

Turning to LLYLLHILLLDGAAWLTLWVFGTS [FADS1], the protein stability index by setting is: under setting [1], 3.38 ± 0.24; under setting [2], 2.49 ± 0.25.

As for LLYSEVTASSLVKINLQGDIVDRG [ADD1], the protein stability index is, setting by setting: under setting [1], 2.85 ± 0.52; under setting [2], 2.42 ± 0.42.

For LMELDMAMEPDRKAAVSHWQQQSY [CTNNB1], the protein stability index is, setting by setting: under setting [1], 3.11 ± 0.19; under setting [2], 3.33 ± 0.37.

Regarding LMGEIAKATFMYEQFPELMNMLWS [CLINT1], the protein stability index under setting [1] amounted to 2.61 ± 0.62 and the protein stability index under setting [2] was found to be 2.33 ± 0.32.

The sequence LMHIAHIAELLEVFDLRMMVANIL [RHOBTB2] yielded a protein stability index under setting [1] of 2.48 ± 0.4 and a protein stability index under setting [2] of 2.31 ± 0.32.

In turn, LMKKIGQCPMRVQKEVAGFVLNRL [CRYL1] returned a protein stability index under setting [1] of 2.34 ± 0.38 and a protein stability index under setting [2] of 2.53 ± 0.24.

For LMLELKSLQEEPVEGFRITLVDES [UBE2R2], the protein stability index runs as follows: under setting [1], 2.6 ± 0.39; under setting [2], 2.77 ± 0.17.

For LMNDVIDTSGFPDLSDNRNEDPLV [FBXO33], the protein stability index came to 4.85 ± 0.17 under setting [1] and 4.9 ± 0.18 under setting [2].

With LNDISRKSEGLSGRVLRKLPFLAH [TRIP13], the protein stability index is, setting by setting: under setting [1], 2.11 ± 0.27; under setting [2], 2.57 ± 0.55.

As for LPEWISCLIQKAQWTVGKLNCPFC [RNF180], the protein stability index is 2.22 ± 0.19 under setting [1] and 2.31 ± 0.087 under setting [2].

Consider LPLAEREHVSRALCIHTGRELRCK [TRIB1], for which the protein stability index by setting is: under setting [1], 3.99 ± 0.32; under setting [2], 3.93 ± 0.2.

Turning to LPLMDLCRRSIRSALGRQRLQDIS [SPSB4], the protein stability index runs as follows: under setting [1], 2.62 ± 0.12; under setting [2], 2.53 ± 0.34.

LPMWSNQTWNNSTWSNQTQNIQSW [NANOGP8]: the protein stability index runs as follows: under setting [1], 2.45 ± 0.38; under setting [2], 2.56 ± 0.27.

Consider LPPDALIIEYRGKFMLREQFEANG [KMT2E], for which the protein stability index reads like this: under setting [1], 2.57 ± 0.31; under setting [2], 2.63 ± 0.18.

Take LPPQYVDDVISRIDRMFPEMSIHL [MED27]: the protein stability index turned out to be 2.19 ± 0.087 under setting [1] and 2.29 ± 0.29 under setting [2].

Take LPRRRGLRKKKTTKLRLERVKFRR [NEUROD6]: the protein stability index by setting is: under setting [1], 3.85 ± 0.27; under setting [2], 3.97 ± 0.29.

In the case of LPSLSCRTSCSSRPCVPPSCHGYT [KRT33B], the protein stability index is, setting by setting: under setting [1], 2.1 ± 0.11; under setting [2], 2.09 ± 0.36.

On to LPSSGEGLAFFTFPNIASATKFKQ [HMOX1], for which the protein stability index is 2.75 ± 0.43 under setting [1] and 2.87 ± 0.18 under setting [2].

Sequence LPSVTDIRRPRLYLLQWLKSDKAL [PLK2] yielded a protein stability index under setting [1] of 2.33 ± 0.24 and a protein stability index under setting [2] of 2.36 ± 0.49.

With LQKDLETRPTQHELRLYKQQVKKL [CEP70], the protein stability index is, setting by setting: under setting [1], 4.19 ± 0.2; under setting [2], 4.42 ± 0.37.

With LQKKLDNLQCLYCEKTFRDKNTLK [ZNF277], the protein stability index stood at 2.64 ± 0.25 under setting [1] and 2.86 ± 0.3 under setting [2].

For the sequence LRDTYKLWVPQPPPRTIKRTRRRL [PWWP2B], the protein stability index by setting is: under setting [1], 3.46 ± 0.19; under setting [2], 3.64 ± 0.21.
